Where no end group is shown, it is not given here.

The test system of test [1] is Escherichia coli strain DB3.1. In words: microdilution assay of hβD2 coated biopolymers (percentage killing). The test is classed as cell-based. The following applies: blocking substance alone, without hβD2. Here is the method:
Microdilution assay. In the microdilution assay the microorganisms were exposed to a potential bio-active substance in liquid surrounding, thus free to move. This potential bio-active substance was either homogenously dispersed in the liquid surrounding by active mixing at the beginning of the tests or could spread out of the sample during incubation time. The bioactivity was measured in percentage killing, wherein the number of colony forming units (CFU) in a control without test substance was set to 0% killing and a reduction in the cell number to zero was set to 100% killing.
Fresh cells were harvested by centrifugation at 1600 rpm for 10 min, the supernatant was removed and the cell pellet was resuspended in 5 ml 10 mM sodium phosphate buffer. This procedure was repeated twice. The optical density was adjusted to OD600 of 0.500 with 10 mM sodium phosphate buffer. 100 μl of the bacterial suspension was pipetted in one well of a microtiter plate without optimized surface. 10 μl test substance or test sample was added. In case of a test substance, the mixture was homogenized by absorbing the mixture several times with a pipette. The microtiter plate is then closed with parafilm and incubated at 37° C. for 2 h. After incubation the substances in the wells were mixed by a pipette. […] For evaluation, the grown colonies were counted.
The microdilution assay facilitates the examination of the hβD2 release kinetics of the biopolymers and thus allowed conclusions on what amounts of hβD2 in which time could be released. For comparing on evaluation of the assay the effect of directly applied hβD2 amounts with the effect of hβD2 amounts applied on biopolymers, the achieved percentage killing of bacteria was compared to the killing rate of the hβD2 standard series in the microdilution assays.
The collagen scaffolds and polylactide matrices were examined in the microdilution assay regarding their hβD2 release kinetics. Since the incubation time of the samples in the bacterial suspension is limited, the samples were stored at −25° C. after the test and until completion of a further assay. The thawed samples were then used in a new assay and were incubated again.

In test [2] the test system is gram-positive bacteria. The following applies: covalently attached onto titanium surfaces, in vitro; cited from earlier work.
In test [3] the test system is Escherichia coli strain DB3.1. In words: micro-dilution assay of coated titanium pins and peptide controls (bacterial killing, CFU). The test is classed as cell-based. The following applies: for antibacterial activity, killing: 10 μg coated on SAM 1, SAM 2, SAM 3 titanium pins, 2 h. Here is the method:
In a first experiment 10 μg of hβD2 was coated to three different SAM Hexadecyltrimethoxysilane (SAM 1), Dimethoxymethyloctylsilane (SAM 2), and oxidized Allyltrimethoxysilane (SAM 3) of the modified titanium pins. The anti-bacterial activity of the hβD2-coated pins was tested by a micro-dilution assay. Therefore, Escherichia coli strain DB3.1 (Invitrogen, Cat. No. 11782-018) was used. E. coli was streaked from a glycerol stock onto a Brain Heart Infusion (BHI) agar plate (3.7% (w/v) BHI Bouillon, 1.5% (w/v) Agar), grown overnight at 37° C. and subsequently used to inoculate 40 ml of 3.7% (w/v) BHI Bouillon without any antibiotics in 100 ml flasks. Fresh cells were harvested by centrifugation at 16000 rpm for 10 min and washed twice with 10 mM sodium phosphate buffer, pH 7.2. The optical density was adjusted to 10^4 cells/ml. For anti-bacterial testing, a single pin coated with hβD2 was incubated in one well of a microtiter plate containing 100 μl of the bacterial suspension.
Functionalized titanium pins without hβD2 served as negative controls (SAM1-n, SAM2-n, SAM3-n, SAM4::Col-NHS-n, SAM4::Col-Glu-n). In addition, 5 independent control reactions consisting of hβD2 in a final amount of 0 (NC), 0.02 (PC1), 0.2 (PC2), 2 (PC3) and 10 (PC4) μg were examined in parallel. To determine the specificity of the anti-bacterial activity of hβD2, 10 μl (10 μg/ml in PBS) of polyclonal monospecific anti-hβD2 antibodies were co-incubated with 10 μg of hβD2 and bacterial cells (Table I, PC4/ab).
The microtiter plates were incubated for 2 h at 37° C. The kinetic studies were performed by replacing the bacterial suspension, after 2 h of cultivation with a freshly pre-cultured E. coli solution, which contained the same bacterial concentration, and cultivating for another 2 h and so on. Colony forming units (CFU) were determined after plating 100 μl of a 1:100 dilution of the bacterial suspension on petri dishes with BHI medium and incubating them overnight at 37° C. For every group of the functionalized titanium pins and the controls, 5 independent anti-bacterial assays were performed. A control (NC) of bacterial growth was examined for every independent assay. The number of CFU on the control (consisting of a single petri dish) was set to 0% bactericidal activity. The reduction in the CFU resulting from the anti-bacterial activity of hβD2 was related to the absolute CFU of the control within every independent assay. This value, given as a percentage of the bacterial “killing” activity, was used to describe the antibacterial activity. This kind of normalisation of the antibacterial data was performed for every experimental group.
To examine the release behavior of hβD2 that is adsorbed by different SAM modified titanium pins a time kinetic experiment was performed. The experiment was performed analogous to Example 2. For this experiment 80 μg of hβD2 was adsorbed to three different SAMs Hexadecyltrimethoxysilane (SAM1), Dimethoxymethyloctylsilane (SAM2), and oxidized Allyltrimethoxysilane (SAM3) of the modified titanium pins.
Since it is known that collagen has a positive impact on wound healing, functionalised titanium pins with collagen were investigated. Two different cross-linking strategies for collagen on SAM3 and SAM4 were applied as described in Example 1: (i) a covalently binding strategy with the NHS/EDC cross-linking system, and (ii) the use of glutaraldehyde. Successful binding of collagen was monitored by collagen-specific DirectRed staining (as described in Example 1). […] Additionally 80 μg hβD2 was adsorbed to collagen functionalized SAM3 and SAM4 modified titanium pins, respectively. For monitoring the antibacterial activity of the bio-coated pins the experiment was performed analogous to Example 3. […]
In general terms: In broth dilution the organism is exposed to a series of concentrations in liquid medium.

In test [4] the target is collagen scaffold (bovine collagen type I) (bovine, UniProt P02453 162-1217; P02465 80-1117, limits assumed). Put plainly: cell-based or functional assay.
Where [5] appears, read: 80 μg adsorbed on SAM3 titanium pins, 6 h.
Setting [6] is: 80 μg on collagen SAM4 pins, NHS/EDC-system, 4 h.
Where [7] appears, read: 80 μg on collagen SAM4 pins, NHS/EDC-system, 6 h.
Setting [8] is: 80 μg on collagen SAM4 pins, glutaraldehyde, 4 h.
Setting [9] is: 80 μg on collagen SAM4 pins, glutaraldehyde, 6 h.

Chain of collagen scaffold (bovine collagen type I) (P02453 162-1217 limits assumed, chain 1 of 2): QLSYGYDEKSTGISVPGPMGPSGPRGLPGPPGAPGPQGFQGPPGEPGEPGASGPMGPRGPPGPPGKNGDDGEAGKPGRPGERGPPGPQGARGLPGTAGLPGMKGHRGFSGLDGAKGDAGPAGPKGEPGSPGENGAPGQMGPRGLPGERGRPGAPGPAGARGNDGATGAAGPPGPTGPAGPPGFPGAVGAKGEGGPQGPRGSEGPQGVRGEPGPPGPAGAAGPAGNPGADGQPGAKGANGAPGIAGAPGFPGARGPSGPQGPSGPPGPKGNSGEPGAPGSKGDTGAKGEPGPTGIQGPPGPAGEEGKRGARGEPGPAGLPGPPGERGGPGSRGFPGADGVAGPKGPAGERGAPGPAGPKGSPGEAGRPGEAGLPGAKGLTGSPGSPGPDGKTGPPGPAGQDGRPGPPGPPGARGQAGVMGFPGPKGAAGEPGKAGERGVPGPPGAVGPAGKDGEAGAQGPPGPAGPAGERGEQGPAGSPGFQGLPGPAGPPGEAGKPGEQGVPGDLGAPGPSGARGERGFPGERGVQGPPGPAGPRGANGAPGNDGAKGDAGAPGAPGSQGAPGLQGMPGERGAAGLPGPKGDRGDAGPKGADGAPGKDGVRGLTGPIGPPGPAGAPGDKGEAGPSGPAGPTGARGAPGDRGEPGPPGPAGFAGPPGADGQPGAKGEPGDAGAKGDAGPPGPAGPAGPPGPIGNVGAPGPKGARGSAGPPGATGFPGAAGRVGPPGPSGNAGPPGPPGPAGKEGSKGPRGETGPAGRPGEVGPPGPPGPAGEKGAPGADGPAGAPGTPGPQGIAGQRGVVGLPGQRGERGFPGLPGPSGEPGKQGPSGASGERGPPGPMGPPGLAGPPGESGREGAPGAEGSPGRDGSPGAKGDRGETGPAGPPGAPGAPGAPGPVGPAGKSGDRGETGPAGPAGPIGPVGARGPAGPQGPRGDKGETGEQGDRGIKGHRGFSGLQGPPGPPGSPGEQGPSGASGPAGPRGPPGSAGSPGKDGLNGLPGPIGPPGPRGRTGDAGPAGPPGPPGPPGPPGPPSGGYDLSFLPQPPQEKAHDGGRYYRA
Chain of collagen scaffold (bovine collagen type I) (P02465 80-1117 limits assumed, chain 2 of 2): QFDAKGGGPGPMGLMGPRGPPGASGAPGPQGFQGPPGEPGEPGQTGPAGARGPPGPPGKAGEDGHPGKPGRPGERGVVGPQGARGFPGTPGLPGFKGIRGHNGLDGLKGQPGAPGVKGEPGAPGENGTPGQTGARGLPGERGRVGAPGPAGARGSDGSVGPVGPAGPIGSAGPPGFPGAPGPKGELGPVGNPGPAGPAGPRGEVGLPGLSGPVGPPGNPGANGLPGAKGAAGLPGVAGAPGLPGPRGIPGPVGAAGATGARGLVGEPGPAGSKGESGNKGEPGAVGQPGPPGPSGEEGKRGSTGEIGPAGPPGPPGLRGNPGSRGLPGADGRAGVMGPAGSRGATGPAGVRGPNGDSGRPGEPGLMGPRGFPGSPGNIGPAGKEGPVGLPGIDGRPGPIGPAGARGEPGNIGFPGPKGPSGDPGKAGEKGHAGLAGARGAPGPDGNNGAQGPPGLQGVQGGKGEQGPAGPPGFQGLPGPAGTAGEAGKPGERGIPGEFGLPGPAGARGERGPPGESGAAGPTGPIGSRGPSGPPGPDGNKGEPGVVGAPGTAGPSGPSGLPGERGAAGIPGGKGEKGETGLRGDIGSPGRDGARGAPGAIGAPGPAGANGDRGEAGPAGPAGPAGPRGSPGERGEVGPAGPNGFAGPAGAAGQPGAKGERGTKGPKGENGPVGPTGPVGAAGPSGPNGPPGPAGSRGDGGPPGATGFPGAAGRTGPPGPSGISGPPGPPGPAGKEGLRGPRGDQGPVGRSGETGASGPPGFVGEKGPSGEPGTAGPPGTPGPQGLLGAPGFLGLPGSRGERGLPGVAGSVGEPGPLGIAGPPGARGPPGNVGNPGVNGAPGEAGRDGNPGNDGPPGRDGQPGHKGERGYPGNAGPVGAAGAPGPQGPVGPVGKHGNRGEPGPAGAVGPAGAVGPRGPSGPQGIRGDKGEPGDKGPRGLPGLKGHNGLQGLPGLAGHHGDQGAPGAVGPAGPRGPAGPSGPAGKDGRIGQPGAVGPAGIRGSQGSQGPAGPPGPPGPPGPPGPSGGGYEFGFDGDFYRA

Take `N[C@@H](CCC(=O)O)C(=O)O` [L-glutamic acid, reference compound]: the “self-activity (killing / reduction of the number of bacteria)” value in test [1] amounted to 4%.
Same read-out and setting: the same measure for `NCCCC[C@H](N)C(=O)O` [L-lysine, reference compound]: 4%.
Still for that read-out and setting: the same measure for `O=C([O-])CC(O)(CC(=O)[O-])C(=O)[O-].[Na+].[Na+].[Na+]` [Sodium citrate, sodium citrate, reference compound]: 100%; for `NCCCCNCCCN` [spermidine, reference compound]: 35%.
On to `CN[C@H](CC(C)C)C(=O)N[C@H]1C(=O)N[C@@H](CC(N)=O)C(=O)N[C@H]2C(=O)N[C@H]3C(=O)N[C@H](C(=O)N[C@H](C(=O)O)c4cc(O)cc(O)c4-c4cc3ccc4O)[C@H](O)c3ccc(c(Cl)c3)Oc3cc2cc(c3O[C@@H]2O[C@H](CO)[C@@H](O)[C@H](O)[C@H]2O[C@H]2C[C@](C)(N)[C@H](O)[C@H](C)O2)Oc2ccc(cc2Cl)[C@H]1O` [vancomycine], for which the “reduced colony-forming of gram-positive bacteria” value in test [2] is listed as “up to 88%”.
In the case of “chondroitin sulphate [reference compound]”, the “self-activity (killing / reduction of the number of bacteria)” value in test [1] is listed as 23%.
As to “poly-L-glutamic acid [reference compound]”, in test [1], the “self-activity (killing / reduction of the number of bacteria)” value is “no self-activity”.
Same read-out and setting: as for poly-L-lysine [reference compound], the figure is 100%.

B1: Ribonuclease 7 (protein)
chain: KPKGMTSSQWFKIQHMQPSPQACNSAMKNINKHTKRCKDLNTFLHEPFSSVAATCQTPKIACKNGDKNCHQSHGPVSLTMCKLTSGKYPNCRYKEKRQNKSYVVACKPPQKKDSQQFHLVPVHLDRVL
modifications: Homo sapien
Turning to B1, in test [3], the “antibacterial activity, killing” value is listed as “about 90%”. Further, the killing rate is 21% in test [3] (setting [5]); 49% in test [3] (setting [6]); “about 22%” in test [3] (setting [7]); 77% in test [3] (setting [8]); “about 8%” in test [3] (setting [9]).

B2: mutRNAse7: Ribonuclease 7 derivative, SEQ ID NO: 10 (protein)
chain: KPKGMTSSQWFKIQHMQPSPQACNSAMKNINKHTKRCRDLNTFLHEPFSSVAATCQTPKIACKNGDKNCHQSHGPVSLTMCKLTSGKYPNCRYKEKRQNKSYVVACKPPQKKDSQQFHLVPVDLDRVL
modifications: Synthetic primer
Take B2: in test [3], the “antibacterial activity, killing” value is listed as “about 90%”. Further, the killing rate in test [3] (80 μg adsorbed on SAM1 titanium pins, 6 h) is recorded as about 41%; in test [3] (setting [5]), 17%; in test [3] (setting [6]), 53%; in test [3] (setting [7]) it was about 17%; in test [3] (setting [8]), 75%; in test [3] (setting [9]), about 15%.
Regarding GIGDPVTCLKSGAICHPVFCPRRYKQIGTCGLPGTKCCKKP (ends and bridges not checked; cysteine pairing not given here) [human β-defensin-2], in test [4], the “hβD2 released by the scaffold (agar diffusion assay, zone of inhibition against E. coli, 10 µg hβD2 applied)” value is 40% and the “hβD2 retarded by the scaffold (agar diffusion assay, zone of inhibition against E. coli, 10 µg hβD2 applied)” value was found to be 60%.

These data come from patent US20110311601A1, “ANTIMICROBIAL MEDICAL DEVICES” (priority 2010, published 2011).
